Where “and” joins values, the source holds several entries; their conditions need not be identical. Equal values may be shown once.
T1: ecto-CRT on CT-26 cells (Mus musculus, UniProt P14211)
T1 sequence (P14211 18-416): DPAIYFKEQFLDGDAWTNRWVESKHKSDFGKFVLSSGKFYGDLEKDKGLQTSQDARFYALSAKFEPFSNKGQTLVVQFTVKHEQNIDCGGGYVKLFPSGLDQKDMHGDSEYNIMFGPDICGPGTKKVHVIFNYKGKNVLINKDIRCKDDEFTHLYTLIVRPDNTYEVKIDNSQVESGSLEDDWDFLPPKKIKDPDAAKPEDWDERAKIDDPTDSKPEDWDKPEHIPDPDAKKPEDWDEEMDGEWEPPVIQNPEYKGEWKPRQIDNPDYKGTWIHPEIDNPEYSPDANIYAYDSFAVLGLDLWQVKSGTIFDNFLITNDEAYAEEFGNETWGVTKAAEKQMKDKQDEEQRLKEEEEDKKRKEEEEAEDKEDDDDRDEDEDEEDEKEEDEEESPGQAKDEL

T2: ecto-CRT on MC-38 cells (Mus musculus, UniProt P14211)
T2 sequence (P14211 18-416): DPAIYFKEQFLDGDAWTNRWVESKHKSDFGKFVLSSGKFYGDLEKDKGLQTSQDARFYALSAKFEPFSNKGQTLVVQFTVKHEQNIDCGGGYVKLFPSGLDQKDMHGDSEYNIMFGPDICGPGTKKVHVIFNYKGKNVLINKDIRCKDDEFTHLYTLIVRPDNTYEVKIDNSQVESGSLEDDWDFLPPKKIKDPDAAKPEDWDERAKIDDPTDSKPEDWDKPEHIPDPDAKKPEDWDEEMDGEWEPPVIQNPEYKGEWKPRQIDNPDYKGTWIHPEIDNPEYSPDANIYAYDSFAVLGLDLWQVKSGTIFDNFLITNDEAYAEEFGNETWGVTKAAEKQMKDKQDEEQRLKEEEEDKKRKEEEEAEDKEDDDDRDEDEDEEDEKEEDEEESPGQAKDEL


Assays:
CT-26 tumor = test: In vivo anti-cancer efficacy in CT-26 tumor-bearing mice; details: for tumor suppression in mice treated with GEM: combination with GEM (non-ICD-inducing); for tumor growth in mice treated with ICD-inducing drugs: summary statement, doxorubicin and mitozantrone
Description: CT-26 and MC-38 tumor cells (106 in 100 μL PBS) were implanted subcutaneously into the right flanks of 6-week-old BALB/c and C57BL/6 female mice (Orient company, Korea), respectively. When the tumors reached about 100 mm^3, the tumor-bearing mice were injected intraperitoneally with anticancer agents (15 mg/kg GEM, 10 mg/kg DOX or 2 mg/kg MTX) three times every 2 days. Simultaneously, the mice were injected intravenously with the PASylated recombinant proteins of the present invention five times every 2 days. The length (L), width (W), and height (H) of each tumor were recorded every 3 days using a digital caliper, and the tumor volume (mm3) was calculated using the following formula (L×H×W)/2. Mice were euthanized when tumors were ˜1,500 mm^3 and all animal experiments were performed in accordance with the general principles and procedures outlined in the National Institutes of Health Guidelines, and all protocols were approved by the Chonnam National University Animal Care and Use Committee (permit number: HCRL 16-001).

ecto-CRT on CT-26 cells [1] = molecular target: T1, ecto-CRT on CT-26 cells; test: Flow cytometry binding to anticancer-agent-treated CT-26 cells; type: cell-based; details: for binding to cells: 100 nM protein; for binding after pretreatment with anti-CRT antibodies: CT-26 cells treated with DOX or MTX
Description: (§1) Cells were cultured at 37° C. in DMEM medium supplemented with 10% FBS and 100 U of streptomycin/penicillin in an atmosphere of 5% CO2. Cells were treated with each anticancer drug [3 μM methotrexate (MTX), 25 μM […] (DOX), or 15 μM gemcitabine (GEM)] to induce apoptosis (Y. Zhang, et al., Cancers, 13 (11), 2801, 2021). After 4 h of incubation, the cells were scraped and detached from the plate. The cells (10^5) were fixed with 1% PFA for 15 min and then treated with 100 nM of PASylated recombinant proteins for 1 h on ice. After washing five times with cold PBS buffer containing 0.1% Tween-20 (T-PBS), the cells were incubated with anti-His tagged monobodies (diluted to 1:1000) for 1 h and then treated with Alexa Fluor 488-conjugated secondary antibodies (5 μg/mL) for 1 h. Fluorescence signals were detected by FACSCanto II Flow Cytometer (BD Biosciences, USA). For blocking experiments, cells were first incubated with anticancer agents for 4 h and fixed with 1% PFA. Cells were then incubated with anti-CRT antibodies (diluted to1: 400) for 1 h to mask ecto-CRT. Cells were stained with PASylated recombinant proteins and followed the same procedure as described above.

CT-26 cells = test: Cell viability (CCK-8) of CT-26 cells; type: cell-based, mouse; details: 1 IU/mL; for cell viability: 24 h, no anticancer pretreatment; for reduction of viability of cells pretreated with DOX and MTX, higher extent: 24 h after DOX or MTX pretreatment; for reduction in cell viability in cells pretreated with GEM: 24 h after GEM pretreatment
Description: CT-26 and MC-38 cells (10^4 cells per well) were seeded into three wells of a 96-well plate and incubated at 37° C. The next day, the culture medium was replaced with 100 μL of fresh medium containing the above concentrations of anticancer agents. After incubation at 37° C. for 4 h, the culture medium was removed and the cells were washed three times with PBS. […] Finally, CCK-8 reagent (10 μL/well) was added for 3 h at 37° C., and the amount of color in each sample was measured at OD450.

ecto-CRT on MC-38 cells = molecular target: T2, ecto-CRT on MC-38 cells; test: Flow cytometry binding to anticancer-agent-treated MC-38 cells; type: cell-based; parameters: endogenous in cells; host or cells: MC-38 mouse colon cancer cells (in culture); details: for binding to cells: 100 nM protein; for binding after pretreatment with anti-CRT antibodies: MC-38 cells treated with DOX or MTX
Description: as §1

ecto-CRT on CT-26 cells [2] = molecular target: T1, ecto-CRT on CT-26 cells; test: Confocal immunofluorescence staining of CT-26 cells; type: cell-based; parameters: endogenous in cells; host or cells: CT-26 and MC-38 mouse colon cancer cells (in culture, or CT-26 tumors in mice)
Description: PASylated CRT-targeted L-ASNases bound to ecto-CRT on cells were visualized by confocal immunofluorescence microscopy with reference to the prior art (Y. Zhang, et al., Cancers, 13(11), 2801, 2021). After overnight incubation in a cover-glass, CT-26 and MC-38 cells (104) were treated with anticancer agents for 4 h at 37° C. The cells were then fixed with 1% PFA for 15 min, stained with 100 nM PASylated recombinant proteins for 1 h on ice, and treated with anti-His tagged monobodies (diluted to 1:1000) and Alexa Fluor 488-conjugated secondary antibody for 1 h (5 μg/mL). Cell membranes were stained with Alexa Fluor 555-conjugated wheat germ agglutinin (WGA) (diluted to 1:5000). Between each step, samples were washed with cold T-PBS. Finally, the cells were incubated with 4′,6-diamidino-2-phenylindole (DAPI) (Thermo Fisher Scientific, USA) to stain the nuclei. Immunofluorescence signals were imaged using an LSM510 confocal microscope (ZEISS, Jena, Germany) and data were analyzed with ZEN-LSM imaging software (ZEISS, Jena, Germany).

[3] = CT-26 cells treated with DOX and MTX
[4] = CT-26 cells with GEM or PBS treatment
[5] = MC-38 cells treated with DOX and MTX
[6] = MC-38 cells with GEM or PBS treatment
[7] = CT-26 cells treated with DOX or MTX

| Molecule | sudden death of mice (CT-26 tumor; 20 IU CRT3LP per injection, DOX-treated mice, by day 12) | optimal therapeutic dose (CT-26 tumor; DOX-treated mice) [IU/injection/mouse] | tumor suppression in mice treated with GEM (CT-26 tumor) | tumor growth in mice treated with ICD-inducing drugs (CT-26 tumor) | binding to cells (ecto-CRT on CT-26 cells [1]; [3]) | binding after pretreatment with anti-CRT antibodies (ecto-CRT on CT-26 cells [1]) | binding to cells (ecto-CRT on CT-26 cells [1]; [4]) | cell viability (CT-26 cells) | reduction of viability of cells pretreated with DOX and MTX, higher extent (CT-26 cells) [fold] | reduction in cell viability in cells pretreated with GEM (CT-26 cells) | binding to cells (ecto-CRT on MC-38 cells; [5]) | binding after pretreatment with anti-CRT antibodies (ecto-CRT on MC-38 cells) | binding to cells (ecto-CRT on MC-38 cells; [6]) | immunofluorescence staining, binding to cells (ecto-CRT on CT-26 cells [2]; [7]) | immunofluorescence staining, binding to cells (ecto-CRT on CT-26 cells [2]; CT-26 cells treated with GEM) |
| --- | --- | --- | --- | --- | --- | --- | --- | --- | --- | --- | --- | --- | --- | --- | --- |
| CRT3LP: PASylated L-ASNase fused with CRT-targeting CRT3 monobody at N-terminus and PAS200 tag plus His6 tag at C-terminus (protein) MASVSDVPRDLEVVAATPTSLLISWKLGFFKRYYRITYGETGGNSPVQEFTVPGSKSTATISGLKPGVDYTITVYAVTGQPMYGQPMYPISINYRTSGGGGSGGGGSEFLPNITILATGGTIAGGGDSATKSNYTAGKVGVENLVNAVPQLKDIANVKGEQVVNIGSQDMNDDVWLTLAKKINTDCDKTDGFVITHGTDTMEETAYFLDLTVKCDKPVVMVGAMRPSTSMSADGPFNLYNAVVTAADKASANRGVLVVMNDTVLDGRDVTKTNTTDVATFKSVNYGPLGYIHNGKIDYQRTPARKHTSDTPFDVSKLNELPKVGIVYNYANASDLPAKALVDAGYDGIVSAGVGNGNLYKTVFDTLATAAKNGTAVVRSSRVPTGATTQDVEVDDAKYGFVASGTLNPQKARVLLQLALTQTKDPQQIQQIFNQYGSSGGGGSGGGGSASPAAPAPASPAAPAPSAPAASPAAPAPASPAAPAPSAPAASPAAPAPASPAAPAPSAPAASPAAPAPASPAAPAPSAPAASPAAPAPASPAAPAPSAPAASPAAPAPASPAAPAPSAPAASPAAPAPASPAAPAPSAPAASPAAPAPASPAAPAPSAPAASPAAPAPASPAAPAPSAPAASPAAPAPASPAAPAPSAPAAGSHHHHHH | caused sudden death and 2 out of 3 and Two of the mice injected with 20 IU died | 8 | not and did not enhance tumor suppression | significantly inhibiting tumor growth | efficiently bound | significantly inhibited | not | barely affected | 2 | not observed | efficiently bound | significantly inhibited | not | only bound | not |
| CRT4LP: PASylated L-ASNase fused with CRT-targeting CRT4 monobody at N-terminus and PAS200 tag plus His6 tag at C-terminus (protein) MASVSDVPRDLEVVAATPTSLLISWGQPMYGQPMYYYRITYGETGGNSPVQEFTVPGSKSTATISGLKPGVDYTITVYAVTKLGFFKRPISINYRTSGGGGSGGGGSEFLPNITILATGGTIAGGGDSATKSNYTAGKVGVENLVNAVPQLKDIANVKGEQVVNIGSQDMNDDVWLTLAKKINTDCDKTDGFVITHGTDTMEETAYFLDLTVKCDKPVVMVGAMRPSTSMSADGPFNLYNAVVTAADKASANRGVLVVMNDTVLDGRDVTKTNTTDVATFKSVNYGPLGYIHNGKIDYQRTPARKHTSDTPFDVSKLNELPKVGIVYNYANASDLPAKALVDAGYDGIVSAGVGNGNLYKTVFDTLATAAKNGTAVVRSSRVPTGATTQDVEVDDAKYGFVASGTLNPQKARVLLQLALTQTKDPQQIQQIFNQYGSSGGGGSGGGGSASPAAPAPASPAAPAPSAPAASPAAPAPASPAAPAPSAPAASPAAPAPASPAAPAPSAPAASPAAPAPASPAAPAPSAPAASPAAPAPASPAAPAPSAPAASPAAPAPASPAAPAPSAPAASPAAPAPASPAAPAPSAPAASPAAPAPASPAAPAPSAPAASPAAPAPASPAAPAPSAPAASPAAPAPASPAAPAPSAPAAGSHHHHHH |  |  | not and did not enhance tumor suppression | significantly inhibiting tumor growth | efficiently bound | significantly inhibited | not | barely affected | 2 | not observed | efficiently bound | significantly inhibited | not | only bound | not |
